Test results taken from US20210096139A1.

Target: human CSF tau (human) (UniProt P10636)
Test: IP of tau from human CSF on antibody beads; recovery assessed by N-terminus tau ELISA (HJ8.5 capture, HJ8.7-biotin detection); value is the average over Tau12, HJ8.5 and HJ8.7

Chain of UniProt P10636 (P10636 2-758 limits assumed): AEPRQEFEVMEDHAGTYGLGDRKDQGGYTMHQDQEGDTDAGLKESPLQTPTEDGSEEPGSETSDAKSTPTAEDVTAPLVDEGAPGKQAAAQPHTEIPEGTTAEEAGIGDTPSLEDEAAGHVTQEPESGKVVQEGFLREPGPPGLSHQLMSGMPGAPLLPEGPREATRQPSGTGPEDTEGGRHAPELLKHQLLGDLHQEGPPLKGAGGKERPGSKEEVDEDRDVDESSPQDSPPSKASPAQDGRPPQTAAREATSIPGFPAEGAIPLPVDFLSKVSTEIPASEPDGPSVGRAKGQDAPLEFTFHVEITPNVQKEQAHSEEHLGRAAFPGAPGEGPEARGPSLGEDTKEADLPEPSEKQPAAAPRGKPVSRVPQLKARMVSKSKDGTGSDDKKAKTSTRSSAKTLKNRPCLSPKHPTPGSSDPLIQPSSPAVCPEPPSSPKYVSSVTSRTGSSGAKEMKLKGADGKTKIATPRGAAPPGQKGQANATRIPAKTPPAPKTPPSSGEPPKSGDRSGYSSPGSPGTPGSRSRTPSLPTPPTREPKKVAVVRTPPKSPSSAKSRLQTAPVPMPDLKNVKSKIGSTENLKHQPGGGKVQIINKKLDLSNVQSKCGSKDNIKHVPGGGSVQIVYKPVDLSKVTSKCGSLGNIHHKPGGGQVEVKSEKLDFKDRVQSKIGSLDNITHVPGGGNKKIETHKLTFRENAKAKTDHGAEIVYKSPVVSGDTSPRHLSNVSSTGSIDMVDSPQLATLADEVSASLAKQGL

immunoprecipitation efficiency [%] | Substance
99.3 | HJ8.7 (antibody)
99.3 | Tau12 (antibody)
